US20130072665A1 (Amgen, published 2013)
Where two headings read alike, the source gives them in different places.

Legend:
Experiment in all cases: domain binding ELISA (coated antibody captures the PCSK9 form; OD650)
[1] = molecular target: T1, PCSK9 ProCat (31-449 of SEQ ID NO: 3) (human, UniProt Q8NBP7 27-449)
T1 construct: From PCSK9 449TEV after rTEV cleavage: GAMG-PCSK9 (31-449)-ENLYFQ; Written as one chain; autocatalysis between 152 and 153 splits pro-domain and catalytic domain; also called procat PCSK9; PCSK9 31-449
Protocol: (§1) Clear, 96 well maxisorp plates (Nunc) were coated overnight with 2 ug/ml of various anti-PCSK9 antibodies diluted in PBS. Plates were washed thoroughly with PBS/0.05% Tween-20 and then blocked for two hours with 3% BSA/PBS.

[2] = molecular target: T2, PCSK9 V domain (450-692 of SEQ ID NO: 3) (human, UniProt Q8NBP7 450-692)
T2 construct: also called v-domain PCSK9
T2 chain: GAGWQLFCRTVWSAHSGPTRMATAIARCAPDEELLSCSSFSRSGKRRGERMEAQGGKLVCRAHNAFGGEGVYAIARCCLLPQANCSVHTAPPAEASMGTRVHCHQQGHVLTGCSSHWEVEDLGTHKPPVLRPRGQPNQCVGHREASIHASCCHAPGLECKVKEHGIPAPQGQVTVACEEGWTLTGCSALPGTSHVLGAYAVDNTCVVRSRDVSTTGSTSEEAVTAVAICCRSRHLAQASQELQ
Protocol: as §1

[3] = molecular target: T1, PCSK9 ProCat (31-449 of SEQ ID NO: 3); remark: listed apart in the source
Protocol: as §1

[4] = molecular target: T2, PCSK9 V domain (450-692 of SEQ ID NO: 3)
Protocol: as §1

B1: 30B9 (antibody, V domains shown)
VH: QVQLVQSGAEVKKPGASVKVSCKASGYPLTSYGISWVRQAPGQGLEWMGWISAYNGNTNYAQKVQGRVTMTTDTSTSTVYMELRSLRSDDTAVYYCARGYGMDVWGQGTTVTVSS
VL: QSALTQPASVSGSPGQSITISCTGTSSDVGGYNSVSWYQQHPGKPPKLMIYEVSNRPSGVSNRFSGSKSGNTASLTISGLQAEDEADYFCSSYTSTSMVFGGGTKLTVL
binding result [1]: binds
binding result [2]: no binding

B2: 20D10 (antibody, V domains shown)
VH: QIQLVQSGAEVKKPGASVKVSCKASGYPLTSYGISWVRQAPGQGLEWMGWISAYNGNTNYAQKVQGSVTMTTDTSTSTVYMELRSLRSDDTAVYYCARGYGMDVWGQGTTVTVSS
VL: QSALTQPASVSGSPGQSITISCTGTSSDVGGYNSVSWYQQYPGKPPKLKIYEVSNRPSGVSNRFSGSKSGNTASLTISGLQAEDEADYFCSSYTSTSMVFGGGTKLTVL
binding result [3]: binds
binding result [4]: no binding

B3: 23G1 (antibody, V domains shown)
VH: QVQLVQSGAEVKKPGASVKVSCKASGYTLTSYGISWVRQAPGQGLEWMGWVSFYNGNTNYAQKLQGRGTMTTDPSTSTAYMELRSLRSDDTAVYYCARGYGMDVWGQGTTVTVSS
VL: QSALTQPASVSGSPGQSITISCTGTSSDVGGYNSVSWYQQHPGKAPKLMIYEVTNRPSGVSNRFSGSKSGNTASLTISGLQAEDEADYYCNSYTSTSMVFGGGTKLTVL
binding result [3]: binds
binding result [4]: no binding

B4: 31D1 (antibody, V domains shown)
VH: QIQLVQSGAEVKKPGASVKVSCKASGYTLTSYGISWVRQAPGQGLEWMGWISFYNGNTNYAQKVQGRVTMTTDTSTSTVYMELRSLRSDDTAVYFCARGYGMDVWGQGTTVTVSS
VL: QSALTQPASVSGSPGQSITISCTGTSSDVGGYNSVSWYQQHPGKPPKLMIYEVSNRPSGVSNRFSGSKSGNTASLTISGLQAEDEADYFCSSYTSTSMVFGGGTKLAVL
binding result [3]: binds
binding result [4]: no binding

B5: 22E2 (antibody, V domains shown)
VH: QVQLVESGGGVVQPGRSLRLSCAASGFTFSSFGMHWVRQAPGKGLEWVALIWNDGSNKYYADSVKGRFTISRDNSKNTLYLQMNSLRAEDTAVYYCARAIAALYYYYGMDVWGQGTTVTVSS
VL: QSVLTQPPSVSAAPGQKVTISCSGSSSNIGNNFVSWYQQLPGTAPKLLIYDYNKRPSGIPDRFSGSKSGTSATLGITGLQTGDEADYYCGTWDSSLSGYVFGTGTRVTVL
binding result [3]: binds
binding result [4]: no binding

B6: 16F12 (antibody, V domains shown)
VH: QVHLVESGGGVVQPGRSLRLSCAASGFTFNSFGMHWVRQAPGKGLEWVALIWSDGSDEYYADSVKGRFTISRDNSKNTLYLQMNSLRAEDTAVYYCARAIAALYYYYGMDVWGQGTTVTVSS
VL: QSVLTQPPSVSAAPGQKVTISCSGSSSNIGNNFVSWYQQLPGTAPKLLIYDYNKRPSGIPDRFSGSKSGTSATLGITGLQTGDEADYYCGTWDSSLSAYVFGTGTRVTVL
notes: lambda light chain
binding result [4]: no binding

B7: 27A6 (antibody, V domains shown)
VH: QVHLVESGGGVVQPGRSLRLSCAASGFTFNSFGMHWVRQAPGKGLEWVALIWSDGSDKYYADSVKGRFTISRDNSKNTLYLQMNSLRAEDTAVYYCARAIAALYYYYGMDVWGQGTTVTVSS
VL: QSVLTQPPSVSAAPGQKVTISCSGSSSNIGNNFVSWYQQFPGTAPKLLIYDYNKRPSGIPDRFSGSKSGTSATLGITGLQTGDEADYYCGTWDSSLSSYVFGTGTRVTVL
binding result [3]: binds
binding result [4]: no binding

B8: 28B12 (antibody, V domains shown)
VH: QVQLVESGGGVVQPGRSLRLSCAASGFTFSSFGMHWVRQAPGKGLEWVALIWNDGSNKYYADSVKGRFTISRDNSKNTLYLQMNSLRAEDTAVYYCARAIAALYYYYGMDVWGHGTTVTVSS
VL: QSVLTQPPSVSAAPGQKVTISCSGSSSNIGNNFVSWYQQLPGTAPKLLIYDYNKRPSGIPDRFSGSKSGTSATLGITGLQTGDEADYYCGTWDSSLSGYVFGTGTRVTVL
binding result [3]: binds
binding result [4]: no binding

B9: 28D6 (antibody, V domains shown)
VH: QVQLVESGGGVVQPGRSLRLSCAASGFTFSSFGMHWVRQAPGKGLEWVALIWNDGSNKYYADSVKGRFTISRDNSKNTLYLQMNSLRAEDTAVYYCARAIAALYYYYGMDVWGQGTTVTVSS
VL: QSVLTQPPTVSAAPGQKVTISCSGSSSNIGNNFVSWYQQLPGTAPKLLIYDYNKRPSGIPDRFSGSKSGTSATLGITGLQTGDEADYYCGTWDSSLSGYVFGTGTRVTVL
binding result [3]: binds
binding result [4]: no binding

B10: 31G11 (antibody, V domains shown)
VH: QVQLVESGGGVVQPGRSLRLSCAASGFTFRSYGMHWVRQAPGKGLEWVALIWHDGSNTYYVDSVKGRFTISRDNSKNTLYLQMNSLRAEDTAVYYCARGIAVAYYYYGMDVWGQGTTVTVSS
VL: QSVLTQPPSVSAAPGQKVTISCSGSSSNIGNNFVSWYQQLPGTAPKLLIYDSNKRPSGIPDRFSGSKSGTSATLDITGLQTGDEADYYCGTWDSSLSAYVFGTGTKVTVL
binding result [4]: no binding

B11: 3B6 (antibody, V domains shown)
VH: QVQLVQSGAEVKKPGASVKVSCKASGYTFTSYGISWVRQAPGQGLEWMGWISTYNGNTNYAQKVQGRVTMTTDTSTSTAYMELRSLRSDDTAVYYCARGYTRDYWGQGTLVTVSS
VL: QPVLTQPLFASASLGASVTLTCTLSSGYSSYEVDWYQQRPGKGPRFVMRVDTGGIVGSKGEGIPDRFSVLGSGLNRYLTIKNIQEEDESDYHCGADHGSGTNFVVVFGGGTKLTVL
binding result [3]: binds
binding result [4]: no binding

B12: 13B5 (antibody, V domains shown)
VH: EVQLLESGGGLVQPGGSLRLSCAASGFTFSSYAMSWVRQAPGKGLEWVSTISGSGGRTYYADSVKGRFTISRDNSKNTLYLQMNSLRAEDTAVYYCAKEVGSPFDYWGQGTLVTVSS
VL: QSVLTQPPSVSAAPGQKVTISCSGSNSNIGNNYVSWYQQLPGTAPKLLIYDNNKRPSGIPDRFSGSNSGTSATLGITGLQTGDEADYYCGTWDSSLSAVVFGGGTKLTVL
binding result [1]: no binding

B13: 17C2.1 (antibody, V domains shown)
VH: QVQLVQSGAEVKKPGASVKVSCKASGYSFTSYGISWVRQAPGQGLEWMGWVSAYNGNTNYAQKFQGRVTMTTDTSTSTAYMELRSLRSDDTAVYYCARGYVMDVWGQGTTVTVSS
VL: QSALTQPASVFGSPGQSITISCTGTSSDVGAYNSVSWYQQHPGKAPKRMIYEVSNRPSGVSNRFSGSKSGNTASLTISGLQAEDEADYYCSSYTSTNMVFGGGTKLTVL
notes: subclone
binding result [2]: no binding

B14: 26E10.1 (antibody, V domains shown)
VH: QVQLVQSGAEVKKPGASVKVSCKASGYTLTSYGISWVRQAPGQGLEWMGWVSFYNGNTNYAQKLQGRGTMTTDPSTSTAYMELRSLRSDDTAVYYCARGYGMDVWGQGTTVTVSS
VL: QSALTQPASVSGSPGQSITISCTGTSSDVGGYNSVSWYQQHPGKAPKLMIYEVSNRPSGVFNRFSGSKSGNTASLTISGLQAEDEADYYCNSYTSTSMVFGGGTKLTVL
notes: subclone
binding result [2]: no binding

B15: 31B12 (antibody, V domains shown)
VH: QVQLVESGGGVVQPGRSLRLSCAASGFTFSSYGMHWVRQAPGKGLEWVAIIWYDGSNKYYADSVKGRFTISRDNSKNTLYLQMNSLRAEDTAVYYCARRGGLAARPGGMDVWGQGTTVTVSS
VL: SYELTQPPSVSVSPGQTARITCSGDKLGDKYACWYQQKPGQSPVLVIYQNTKWPLGIPERFSGSKSGNTVTLTISGTQAMDEADYYCQAWDSSTVVFGGGTKLTVL
binding result [2]: no binding
